Measured values published in US20060003399.

Tests used:
[1] = tested on: Full length human N-WASP, TAP-tagged at the C-terminus (Myc-N-WASP-TAP)
[2] = tested on: Full length human WASP, TAP-tagged at the C-terminus (Myc-WASP-TAP)

GST-tev-Rac1
actin polymerization at higher activator concentrations [1]: At higher concentrations, Nck1, Nck2 and Rac1 inhibited WASP- and N-WASP-stimulated actin polymerization
actin polymerization at higher activator concentrations [2]: At higher concentrations, Nck1, Nck2 and Rac1 inhibited WASP- and N-WASP-stimulated actin polymerization
